Drawing on publication PMC10397247, this text covers interaction score for 3 molecules.

One assay deals with T1, APC9291-AA.
T1 chain: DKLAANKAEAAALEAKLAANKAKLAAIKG
The assay is described as follows: two-hybrid library CCmax.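 Further: natural log of median RNA to DNA barcode read ratio; higher means stronger binding.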 Conditions: mean of both orientations.

Another assay deals with T2, APC7524-AA.
T2 chain: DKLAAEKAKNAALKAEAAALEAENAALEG
The experiment in a line: two-hybrid library CCmax.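 Further: natural log of median RNA to DNA barcode read ratio; higher means stronger binding.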 The note with it: mean of both orientations.

The next assay addresses T3, APC8401-AA.
T3 chain: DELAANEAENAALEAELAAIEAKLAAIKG
The experiment in a line: two-hybrid library CCmax.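 Further: natural log of median RNA to DNA barcode read ratio; higher means stronger binding.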 Conditions: mean of both orientations.

The target of the next assay is T4, APC9182-AA.
T4 chain: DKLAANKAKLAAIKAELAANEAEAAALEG
The experiment in a line: two-hybrid library CCmax.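 Further: natural log of median RNA to DNA barcode read ratio; higher means stronger binding.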 The note with it: mean of both orientations.

For the next assay, the target named is T5, APC9806-AA.
T5 chain: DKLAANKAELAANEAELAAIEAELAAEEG
The experiment in a line: two-hybrid library CCmax. The note with it: mean of both orientations.

For a further assay, the target named is T6, APC9141-AA.
T6 chain: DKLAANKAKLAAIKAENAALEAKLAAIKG
The experiment in a line: two-hybrid library CCmax. The note with it: mean of both orientations.

A further assay has as its target T7, APC6088-AA.
T7 chain: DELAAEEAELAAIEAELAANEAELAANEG
The experiment in a line: two-hybrid library CCmax.

For another assay, the target named is T8, APC8516-AA.
T8 chain: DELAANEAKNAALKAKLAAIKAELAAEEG
The experiment in a line: two-hybrid library CCmax. Conditions: mean of both orientations.

Another assay has as its target T9, 4H_BCR.
T9 chain: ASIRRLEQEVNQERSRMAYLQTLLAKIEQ
The assay is described as follows: two-hybrid library CCmax. Conditions: mean of both orientations.

A further assay deals with T10, 4H452-AA.
T10 chain: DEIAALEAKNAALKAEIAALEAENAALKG
The assay is described as follows: two-hybrid library CCmax. Conditions: mean of both orientations.

Another assay concerns the target T11, 4H56-AA.
T11 chain: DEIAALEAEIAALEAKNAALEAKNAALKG
The assay is described as follows: two-hybrid library CCmax. Conditions: mean of both orientations.

For the next assay, the target named is T12, 4H3438-AA.
T12 chain: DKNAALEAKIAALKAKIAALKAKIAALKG
The assay is described as follows: two-hybrid library CCmax.

In a further assay the target is T13, 4H406-AA.
T13 chain: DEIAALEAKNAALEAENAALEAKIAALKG
The experiment in a line: two-hybrid library CCmax. The note with it: mean of both orientations.

The target of another assay is 4H_GCN4. The assay is described as follows: two-hybrid library CCmax. Conditions: mean of both orientations.
In another assay the target is GCN2_T. The assay is described as follows: two-hybrid library CCmax. The note with it: mean of both orientations.
A further assay has as its target T14, 4H347-AA.
T14 chain: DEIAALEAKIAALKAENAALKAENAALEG
The experiment in a line: two-hybrid library CCmax. The note with it: mean of both orientations.

The target in another assay is T15, 4H_APH.
T15 chain: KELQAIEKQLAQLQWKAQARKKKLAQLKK
The assay is described as follows: two-hybrid library CCmax. The note with it: mean of both orientations.

A further assay has as its target T16, 4H967-bA.
T16 chain: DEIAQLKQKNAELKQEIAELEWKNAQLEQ
The experiment in a line: two-hybrid library CCNG1.

For another assay, the target named is T17, 4H953-bA.
T17 chain: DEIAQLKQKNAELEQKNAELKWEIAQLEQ
The assay is described as follows: two-hybrid library CCNG1.

A further assay deals with T18, 4H918-bA.
T18 chain: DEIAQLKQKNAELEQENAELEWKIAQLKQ
The experiment in a line: two-hybrid library CCNG1.

A further assay deals with T19, 4H908-bA.
T19 chain: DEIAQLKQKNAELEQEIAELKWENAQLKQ
The experiment in a line: two-hybrid library CCNG1.

The target in the next assay is T20, 4H968-bA.
T20 chain: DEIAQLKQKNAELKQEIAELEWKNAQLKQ
The assay is described as follows: two-hybrid library CCNG1.

In the next assay the target is T21, 4H855-bA.
T21 chain: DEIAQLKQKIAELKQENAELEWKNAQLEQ
The experiment in a line: two-hybrid library CCNG1.

Another assay deals with T22, 4H883-bA.
T22 chain: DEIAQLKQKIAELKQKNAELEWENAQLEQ
The experiment in a line: two-hybrid library CCNG1.

A further assay addresses T23, 4H797-bA.
T23 chain: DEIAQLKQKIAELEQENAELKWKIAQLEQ
The assay is described as follows: two-hybrid library CCNG1.

4H_GCN4, sequence (chain, as listed by the source): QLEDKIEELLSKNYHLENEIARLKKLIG

B1: APC6088-AA (peptide)
chain: DELAAEEAELAAIEAELAANEAELAANEG
As for B1, the interaction score with APC9291-AA is -1.58; with APC7524-AA it was -1.52; in the assay with APC8401-AA, -1.56; with APC9182-AA, -1.84; with APC9806-AA, -1.36; with APC9141-AA, -1.67. Also, the interaction score with APC6088-AA was -1.3; with APC8516-AA it was -2.19.

B2: 4H3438-AA (peptide)
chain: DKNAALEAKIAALKAKIAALKAKIAALKG
Regarding B2, the interaction score in the assay with 4H_BCR was -1.47; in the assay with 4H452-AA, -0.716; in the assay with 4H56-AA it was 0.462; with 4H3438-AA, 0.922; with 4H406-AA it was -1.51; with 4H_GCN4 it was -1.68. The interaction score with GCN2_T is -1; in the assay with 4H347-AA, -0.916; with 4H_APH, -1.5.

B3: 4H797-bA (peptide)
chain: DEIAQLKQKIAELEQENAELKWKIAQLEQ
With B3, the interaction score in the assay with 4H967-bA was -0.372; with 4H953-bA, -0.848; in the assay with 4H918-bA, 0.787; in the assay with 4H908-bA, -0.499; in the assay with 4H968-bA, -1.67; with 4H855-bA it was 0.572. Further, the interaction score was -0.129 with 4H883-bA and 0.406 with 4H797-bA.
